Source: a protein production outcome set (Wang et al. 2014)

Assay: label from the status in PepcDB records

| Sequence | protein production |
| --- | --- |
| MANSITADEIREQFSQAMSAMYQQEVPQYGTLLELVADVNLAVLENNPQLHEKMVNADELARLNVERHGAIRVGTAQELATLRRMFAIMGMYPVSYYDLSQAGVPVHSTAFRPIDDASLARNPFRVFTSLLRLELIENEILRQKAAEILRQRDIFTPRCRQLLEEYEQQGGFNETQAQEFVQEALETFRWHQSATVDEETYRALHNEHRLIADVVCFPGCHINHLTPRTLDIDRVQSMMPECGIEPKILIEGPPRREVPILLRQTSFKALEETVLFAGQKQGTHTARFGEIEQRGVALTPKGRQLYDDLLRNAGTGQDNLTHQMHLQETFRTFPDSEFLMRQQGLAWFRYRLTPSGEAHRQAIHPGDDPQPLIERGWVVAQPITYEDFLPVSAAGIFQSNLGNETQTRSHGNASREAFEQALGCPVLDEFQLYQEAEERSKRRCGLLLEHHHHHH | not failed |
| MQSLGSLAKNIKPNQNIVEEEHNLKCERCGNTYDYYKFSNGKEFRHGCDCSMIAAGKEAEQQRKQKYLNRIFNQSNVNASLRDATVNSYQPQNDHQVHAKSTAIEYVKGFSVDKPKSLILQGSYGTGKSHLAYAVAKAIKQQGYSVAFMHIPMLMERIKATYNRNATETTDELVQLLSSIDLLVLDDVGVENTEHTLNKLFSIVDNRVGKNNIFTTNFSDKELNQNMNWQRINSRMKQNARTVRVLGDDFRGRDAW | failed |
| MEMSKQLGKKFNLLTLLAYAAPTMALMLFMSIYTMVDGMFIARYVGATALSAVNIFFPIYGLIIAIALMLGTGANAIIAKKIGENNEEEAKENFTFIVICGAVLGLVITVFGLLLMEPILLMLGAGATEELFDFTYTYAKIILCTSPFMILQMLFQNFFVTAGKPNLGLTITVVGGVANIVLDYVFIVLLQMGIAGAGIATAIGIFIPAAYGFVYFIYNKESGLHFVKPKVDGKVLLNSCINGSSEMVSNLASSIVTFAFNLLMIKHLGVDGVAAITIMLYVMFILSSISMGYSAGVAPIISYNYGSKNSSQLKRVFNYSLLIIVIGSVTMYGVSMMFGAYFIQFMAPEGSAVYHIAIEGLNIFSISFLFMGFNIFSSMVFTAFSNGKISAAISFLRTLVFVLASLWILPAILGVTGIWLAIPLAEILSVIVCIFFLTHYRNDYHYA | failed |
| MALNLKQRLEQKFEEEIRFFKGMVSQPKKVGAIVPTSSITAKKMASVINPHSGLPVLELGPGTGVITKAILARGIKPESLTAIEYSTDFYNQLLRSYPGVNFVNGDAFDLDATLGEHKGQMFDSVISAVPMLNFPMAARIKLLDELLKRVPHGRPVVQISYGPISPIVAQPHLYHIRHFDFIVRNIPPAQLWTYTRALEHHHHHH | failed |
| MIGIVAAFEKVKIPEMGKSFGTGWLPPLPSLKDYTEESAQIPEMAEKLGIPTSRKETKTLELPVSIDFRNWCSPIEDQMDLGSCTAHAGVGVVEYFERRAFGKHIDGSRFFVYKTTRNLMGVKGDTGAWLRNTMGALALCGVPPEKYFPYTSRKTPGPDGEPTFDDEPSSFVYSLADNFEALNYFCHDPQGMNLPPEDVILSVKKYLAAGIPSMFGFYGFPSFKDTDVKGGIPFPGPDERSIWGHAVVAVGYDDNMKIRNTLSNKETTGAFLIRNSWGTAWGDKGYGWLPYEYALNKFALDFWSLISMKWVETGNFGLELESSRSRARETLSRDMPLPHALEHHHHHH | not failed |
| MERPVPVRVEPRQLALDLPHAESLSREDFLEGSANTAALSLIESWPDWPNRIMMLVGPEGSGKSHLAAIWAELAGARSTAAQALNAAAVPGALATGAVVVEDLVPGSFDERALFHLMNMAREDEAYVLFTGRVEPSALSIELRDLKSRLRTVPVVSLLPPDDALFRALIVKFCADRQMCIDAALVGYLANRIDRSFVAARQVVEKLDTTALRLGRPVTRALASEVLRADLEHHHHHH | failed |
| MEGSLSRGVEIMKLRELVARSRSIRRFDEHVAVNDATLRDLVELVCYTPSAANRQLLRFLPVTGADMSDKVFPCLKWAGYLEDWPGPEPGERPAAALVMLCRNEDLPGAACDSGIAAQTIMLGAAEKELGGCIVAAIDRERLMASLGIPDAWTVLLVIALGKPAETVVIDQIKPGDDIRYWRDKHGIHHVPKRQVDELLVTAEQLRERG | not failed |
| MAQRVANIMKPFATGLVVGKFAPLHCGHEKLINTALAQCEELFIISYSVPEMPDCEPEKRLTWLQVRFPQATILVLTPELVARYNLPAIPHNDADADIHRHYVATLCLQILRCRPHAVFTAEDYGDGFANVLARRFAQPVEHVRMARPVGDEAPSGTLIRSDVHRYRYMLANDVYYSFVRRICLLGGESTGKSTLSKALADGLDTVYVAEFGRDYWEEKNGILTADDLLHIACEQVRREQQAEANHYLICDTSPLTTLFYALDQYGHAPQELHQLAEREYSLVVLCGAEFPFVQDGTRQGEVFRARQQVWYEQELSRRNIPYLSVSGPLQERVEQILRQLPD | failed |
| MKSKDSPIINEQFWDALFFNGTMPWDRSQTPNELKHYLKRIADKTHSVFIPGCGAAYEVSHFVDCGHDVIAMDYSAEAVNLAKSQLGQHQDKVMLGDVFNADFSREFDVIYERAFLAALPREIWGDYFAMIERLLPSNGLLVGYFVISDDYRSRFPPFCLRSGEIEQKLEANFHLIESTPVTDSVDVFKGKEQWMVWQKK | failed |
| MNGFVQWMEVKLMPIANKFGSQRHMTAIRKGLIATMPLTIVGSFFTIFQNIPIEAYTKLIEPYQAILDIPSRYTMGLLALYATFGIASSLAKSYKLDSLTCGILALMAFLVTAAPPTRVFEDVDNVITAGRYINLANLGSASLFGAIVTALLSVEIYRFFIEKDIMIKMPDGVPPEVSNSFIALIPGAVILLLFWVIRHVIGFDLNGFLSTLLMPLKGILAGNSLFGGLLTVFLICFFWVLGIHGPAIMGPVIRPFWDMSIAENLEAFTNGANVHQLPNIFTEQFLQWFIWIGGAGTTLSLVVLMMFSKSTYLKSLGRLSFLPGLFNINEPVIFGTPIVMNPILGIPFIVAPLITTTLSYFLTVANIIPMMAARLAFAIPAPIAAWMSTNWSFSAAVLVIVNFLITMAIYYPFFKVYEKQQLDKEAEELAAEQAAKN | failed |
| WTGEDSAEPNSDSAEWIRDMYAKVTEIWQEVMQRRDDDGTLHAACQVQPSATLDAAQPRVTGVVLFRQLAPRAKLDAFFALEGFP | failed |
| HPEKCSECSYSCSSKAALRIHERIHCTDRPFKCNYCSFDTKQPSNLSKHMKKFHGDM | not failed |
| MCDCLSIILLVKMKKIYLKFVDFWDGFDTISNFIVDALSIQYEVVLSNEPDYLFYSCFGTSHLEYDCIKIMFIGENIVPDFNVCDYAIGFNYIDFGDRYLRLPLYAIYDGFSNLQNKKIDVNKALDRKFCSIVVSNNKWADPIRETFFKLLSSYKKVDSGGRAWNNIGGPVDNKLDFISQYKFNIAFENSRVLGYTTEKIMEPMQVNSIPVYWGNPLVGKDFNVDSFVNAHDFDSLERLVEYIIELDSSKDKYLEMLEKPWLLDKTYLDWKQLLLNFINNIMMKSYKDAKYLVNYGHAGKYRNEQRFWGRCERKFKLQRIIEYYSQLFDRKLEHHHHHH | failed |
| MGKVYRTSQMAASILVNAIYAMKNFPITLVNTLLSPLSFLLVITLASHGRLLSVSVGGALIMSMISSGIGLQGDLSHLKNDFKLQDMVVSSPTTASVYLIGMAISEIVYSIPALAVLGVHASIYIHTTVVGVFQIVAVMVLMFSFSILLGFTLATITYDIIQSWAFSGIISTLISTIPPVYYPITYIPMPFRYAAYASPTTYGAELVQSAIGFVHLSGASFIVDWVILIMINVVFFIIALKKARWREI | failed |
| MKADKWNHVETARYFRDLQENEVRTMHYLGLAYVVLSRRPNLQLKVPLSTQNYEDGAIVGAGERGGYALQLLFTCAANYPLARPLVEIVEKRNVSDAFEQVLRKEIDLILEEHLGLQMIVPVVTRLQITLNTEMKR | not failed |
| WKTGGRFLTLGVTLIMFIIVSNFLGLPFMYSATEAGEHIAWWRSPTSDPAVTLTLAVMVVTLTHYYGIKMKGTKEYVKGYFQPMKFLFPLKVIEEFANTLTLGLRLFGNIYAGEILLGLLAKLGGASFLGALGALVPMLAWMGFSVFVGSIQAFIFVMLTMVYMAHKVSHDH | failed |
| MSLPTFRIIGFIIGIFLITLAVAMIVPMATLVIYDRFEDLRSFLWASAITFIAGLALVVPGRPDNVQLRPRDMYMLTVSSWIVVCIFAALPFLLTQHISYTDSFFESMSGITATGSTVLSHLDSMSPGILIWRSMLHWLGGIGFIGMAVAILPLLRIGGMRLFQTESSDRSEKVMPRSHMVAKFIVLAYVGFTALGSLAFWAAGMSLFDAINHAMSAISTGGFSTSDLSLARWPQPAVHWVAIVVMILGSLPFTLYVATLRGNRKALIKDEQVQGLIGLLLITWLVMTVWYANTTDLPWTEALRHVALNVTSVVTTTGFALGDYSLWGNFSLMLFFYLGFIGGCSGSTAGGVKIFRFQVAYILLKTNLNQLIHPRAVMKQKYNGHRLDDEIVRSILTFSFFFTITICLIALMLSLLGLDWMTALTGAASTVSGVGPGLGEVIGPAGNFSTLPDAAKWILSGGMLLGRLEIITVLVLCVPAFWRH | failed |
| MPPPLRVLILEDSEDDYFLLVRALKREFDIVPERVDSEESLRANLCEKRWDIVLSDYFMPQFDALAALTLIQSMNLDIPFIIVSGKIGEFEAVKAMKAGAHDYIMKGDYTRLIPAIRRELREAVIRQEQRRTDHELREQLHFRQALIDAIPAPIYFMDTTGIFLGCNKAFEAFSGHTQDEIVGKTIYDLMPPSLAKHTDSADRELFEHGGIQIYESVISFADGALHDVIFYKATFTTTEKNIGGLVGTILDITERKQTEERLRYMSTHDTLTGLYNRAYFQEEMERLEQGRQFPVSVVVFDVDRLKYVNDSQGHAAGDELLIRAALVLKGAFRAEDVVARIGGDEFAVLLPSADADVVQEALRRVIGKIEQSQTEDHPVPLSISFGAATASKGDRLEEVLKLADRRMYENKFKKCCVLPA | failed |
| MRWKGRRVSSNVEDRRGSGAKVGGISIIGLVVAFVAWKFFGVDPQQAYQATQQITAAQNPSSNAPQQLTADQKEASDFVGTILADTEDTWTPIFKQLGQTYVPPKLVLFNGIVQSGCGTAQSAMGPFYCPTDQKVYIDTSFFKDMREQMGISGEQNQTELSRQDQAGDFAQAYVVAHEVGHHIQNLLGISSQVQQAQAQGSRAQANQLSVRLELQADCFAGIWANHNQQRTQFLEAGDIEEAMDAAQKIGDDYLQKRSTGQVVPDSFTHGTSQQRMHWFEVGLKSGDLNQCDTF | failed |
| MKLDDLNLFRQVVENGSYTAASRKTLIPVATITRRIQALEDSLDIRLLNRHARKLSLTEAGQKFYDECAPILATLVNTSEYLGEECRGAAGKLKIAAPSNLTKRMIQPILNKFMLLYPDISINLTMSNQPEQLDPTDWDIIFRVGKQRDSSLIARQIGSLEDILVASPSYLEKNSEPTHAQELHKHSLLKGNPLMRWRLTNKDGESVTITDAGRFEASELNVIRMACSNGLGITLMPDIMISQYLEEGSLIRVLSDWSANPRDIYMIYNYKDHQPEKVRLFIDFVSNHIPD | failed |
| MEFKDYYATLGVEPSAGDAEIKTAYRRLARKYHPDVSKEAGAEDKFKAINEAYEALRDPAKRKAYDQLKAQGFRPGDEFQAPPNYGGGQGFDFEEVFGNGGAGGGFSDFFESLFAGQRGGRPRGPGAGPGAGAGPQARGDTRAKLAVPLEAVYSGDSVRITINGKQLDVRVPKGVQPGQVIRLSGQGNGGGNLLLEIEYAAHPHFEVDGRNILYTLQVMPWQAALGTTISVPTLGGSVELKVPADSDAGRKLRLRGRGLPGTTPGDQIVELEILAPAPTDDAQKKAYRNLAKAFGETVS | failed |
| MGVKFTLMGTTAGLGVPAFHCNCIACREARADPFWARTRSGAVLETGKENILIDASPDLSKQLLRERIQSVDYLFVTHWHYDHFGGIGDLEYYVKLERKWPVALFLPPSAVDDFAKVYPFLEEVFVIEPWEFGKSYAFEGIELTVLPARHSIETGGILLAGSKRAAYFTDTAGLPAPTARQLQGVDTLICDATFNGANWFPHSHMNWQEAIALGESIRAQHTVLTHLAMHYSTPITAAQLQEKLKDYAQVSLAYDGMVLTI | failed |
